Assay results: the DeepSol protein solubility set

assay: soluble on expression in E. coli; label from the status in PepcDB or PDB records

| Sequence | soluble on expression in E. coli |
| --- | --- |
| MILLQLNHISKSFDGEDIFTDVDFEVKTGERIGIVGRNGAGKSTLMKIIAGVENYDSGNVSKIKNLKLGYLTQQMTLNSNATVFEEMSKPFEHIKRMESLIKEETDWLSKHANDYDSDTYKTHMSRYESLSNQFEQLEGYQYESKIKTVLYGLNFSEEDFNKPINDFSGGQKTRLSLAQMLLNEPDLLLLDEPTNHLDLETTKWLEDYLRYFKGAIVIISHDRYFLDKIVTQIYDVALGDVKRYVGNYEEFIQQRDLYYQKRMQEYESQQAEIKRLETFVEKNITRASTSGMAKSRRKILEKMERIDKPMLDAKSANIQFGFDRNTGNDVMHVKNLEIGYQTAITKPMSIEVSKGDHIAIIGPNGIGKSTLIKTIANQQKALNGDITFGANLQIGYYDQKQAEFKSSKTILDYVWDQYPLMNEKDIRAVLGRFLFVQDDVKKIINDLSGGEKARLLLALLMLQRDNVLILDEPTNHLDIDSKEMLEQALQHFEGTILFVSHDRYFINQLANKVFDLTIDGGKMYLGDYQYYIEKVEEAEALKAHQEEQSVNVQAHKKSMEQSSYHNQKEQRREQRKLERQISECENEIETLETTILQIDEQLTQPEVYNNPQKANELAIQKQDSEQKLEHAMSKWEELQQKL | not soluble |
| MFDGEDLKKIFAMDGFLRNIEFEVSYISEGSIEIKVPLKENLMRVGDIMNGGAIMAISDAIGGLTVMTYGSVINQVTVNFNTEFIRPIGTGPVIFRSSMVRIGKNIAYVDVAAIDGNGQLCSKSMGTYYIYR | soluble |
| MVADNSEKSTKSVANGSLISTVSSKDDLPNAIIVTQVPEDVFDNKQDKANFSSLFTQIEKDIHFDFLRSFRRVRVIFSSPENATAAKLIVQGFSFKGHELKAFFAQRIYMSANSQMLSPPPLEKQFLISPPCSPPVGWEQTKDMPPVVCNFDLMARLASFAIDEKYEVHNGDELTPAIIVHPCETPIDVPSAIEMPRTPRPSSPCEQ | not soluble |
| MIGYQIYVRSFRDGNLDGVGDFRGLKNAVSYLKELGIDFVWLMPVFSSISFHGYDVVDFYSFKAEYGSEREFKEMIEAFHDSGIKVVLDLPIHHTGFLHTWFQKALKGDPHYRDYYVWANKETDLDERREWDGEKIWHPLEDGRFYRGLFGPFSPDLNYDNPQVFDEMKRLVLHLLDMGVDGFRFDAAKHMRDTIEQNVRFWKYFLSDLKGIFLAEIWAEARMVDEHGRIFGYMLNFDTSHCIKEAVWKENTRVLIESIERAVIAKDYLPVNFTSNHDMSRLASFEGGFSKEKIKLSISILFTLPGVPLVFYGDELGMKGVYQKPNTEVVLDPFPWNESMCVEGQTFWKWPAYNGPFSGISVEYQKRDPDSILSHTLGWTRFRKENQWIDRAKLEFLCKEDKFLVYRLYDDQHSLKVFHNLSGEEVVFEGVKMKPYKTEVV | soluble |
| MAHHHHHHMSNAEEETVKKKKKYRKDKPWDNENIDHWKVEKFTQEDNKHHFLEESSFKVLFPKYREKYLQQFSSDIKNVLNKHFIKFEIDLIEGYMCVKTTKKTFDPYIIIKSRDMISLLSRSVPFVHAKRVLEDETYCDIIKISGYVRNKNKFIKRRQRLLGSNATTLKALEILTNCYICIHGKTVSVIGHFKSLKVVRRIIIDCMKNIHPVYHIKELIAKRELEKNEEFKNENWEKFLPNFKKRNVQRKKIKEKLDKKKKKNKSVFPPDQLPRKIDIQMETGEYFLNNQKNKKKDKTQDKQQKGND | not soluble |
| MSLKRIAIILLTLTSILFVQHVPEGLAKASNELSLEEKYEQRLTLYEKMEAITNVPWYYLAAVDTYERGLRRAQKDRPAEEGLIAIYFSPQQWVGPLNPDLEDTNPLSISMFNGVGLDGNGDGVADRNNDEDVLYTFARYLESYGFKEEDFRIALWEYYQREQSVNIIYGHANVYKTFKTLDLDDHTFPLPLHHNYSYRSTWGDRRGWGGRRIHEGTDIFANYNVPVMATAYGIVEIKGWNKYGGWRIGVRDLDNVYHYYAHLSGFEKGVEKGTVVAPGDVIGYVGSSGYGKPGTQGKFPPHLHYGMYRDNGYTEWSFDPYPSLKSWERKAYQERKKKKEGHHHHHH | soluble |
| MAHHHHHHMMKNTVRQFVKEITYLEVWEHFRRFGDAAGPDSVKCRLLCSDAVATQLNERIRMRYLLEQFLAQSSTTTSTGVAGEPRRWWEGDLTRCVDSDRRVLAETLLEDGWMLMQLNNCVSDREWLITTMTFQREKSTT | not soluble |
| MGSSHHHHHHSSGLVPRGSMAELSEEALLSVLPTIRVPKAGDRVHKDECAFSFDTPESEGGLYICMNTFLGFGKQYVERHFNKTGQRVYLHLRRTRRPKEEDPATGTGDPPRKKPTRLAIGVEGGFDLSEEKFELDEDVKIVILPDYLEIARDGLGGLPDIVRDRVTSAVEALLSADSASRKQEVQAWDGEVRQVSKHAFSLKQLDNPARIPPCGWKCSKCDMRENLWLNLTDGSILCGRRYFDGSGGNNHAVEHYRETGYPLAVKLGTITPDGADVYSYDEDDMVLDPSLAEHLSHFGIDMLKMQKTDKTMTELEIDMNQRIGEWELIQESGVPLKPLFGPGYTGIRNLGNSCYLNSVVQVLFSIPDFQRKYVDKLEKIFQNAPTDPTQDFSTQVAKLGHGLLSGEYSKPVPESGDGERVPEQKEVQDGIAPRMFKALIGKGHPEFSTNRQQDAQEFFLHLINMVERNCRSSENPNEVFRFLVEEKIKCLATEKVKYTQRVDYIMQLPVPMDAALNKEELLEYEEKKRQAEEEKMALPELVRAQVPFSSCLEAYGAPEQVDDFWSTALQAKSVAVKTTRFASFPDYLVIQIKKFTFGLDWVPKKLDVSIEMPEELDISQLRGTGLQPGEEELPDIAPPLVTPDEPKAPMLDESVIIQLVEMGFPMDACRKAVYYTGNSGAEAAMNWVMSHMDDPDFANPLILPGSSGPGSTSAAADPPPEDCVTTIVSMGFSRDQALKALRATNNSLERAVDWIFSHIDDLDAEAAMDISEGRSAADSISESVPVGPKVRDGPGKYQLFAFISHMGTSTMCGHYVCHIKKEGRWVIYNDQKVCASEKPPKDLGYIYFYQRVAS | soluble |
| GELFIKELLWMLRHQKDIFNNLARQFQKEVLCPNKCGVMSQTLIWCLKCEKQLHICRKSLDCGERHIEVHRSEDLVLDCLLSWHRASKGLTDYSFYRVWENSSETLIAKGKEPYLTKSMVGPEDAGNYRCVLDTINQGHATVIRYDVTVLPPKHSEENQPP | not soluble |
| KKVCACPKILKPVCGSDGRTYANSCIARCNGVSIKSEGSCPTGI | soluble |
| MAGDPMANITLSTQHYRIHRSDVEPVKEKTTDKDVFAKSITAVRNSFISLSTSLSDRFSLHLQTDIPTTHFHRGSASEGRAVLTSKTVKDFMLQKLNSLDIKGNASKDPAYARQTCEAMLSAVYSNNKDHCCKLLISKGVSITPFLKEIGEAAQNAGLPGEIKNGVFTPGGAGANPFVVPLIAAASIKYPHMFINHNQQVSFKAYAEKIVMKEVTPLFNKGTMPTPQQFQLTIENIANKYLQNASLEHHHHHH | not soluble |
| MGEETRRQERRIDAEKRAVSSLLFRIIRSHSTPVANSTASDEATAAAAAGQQNFASRKRRETKKREKSSSSCVSHCFLVMGHGKAFVF | not soluble |
| MKVEIEPQTLRYQPKEIRETKRPTIAYEHPNALTYLKSMKENIIRFANKKSLYTQHDEYIKNVFMDERVNLKYHCESIVSYIAEAFIHYSVWDHSHAYYPGRPSQQTARTDALEGTSRTLPTLAAWLHANGRSNTIITGLNQQPILVPEILRKAFLAGTNPQHKGYWGTLHHCDQRVCEGADLALALWMSKEWVWDCFSIDEKCQIITWFKQVNQCETVDNNWHLFVLTVQIVLKALTGEDEVQYDKYERVKEFYVGDGWFRDGAKGNYDYYNAWAFHYSLYWFTQIDVDFDSTFINNALSDFVGNYRYFFGKEGFPFFGRSACYRLAAAAPLLAAVDLQSDKITIGEAKRAFHCNLKYFISNGALKAGLPTQGLFDEDVRLVDNYSGPASSLWSLRALNIALFCGEKINLWQAEEAPLAIEQGNFELDISAINMKILGVYETQEVIAIFKNEYTQDQSPLSRRLLAPSRWEQTIEKITGRANRPKNNLLRKGITCYSSKMESFFLEHHHHHH | not soluble |
| MSLRKRLTQLFPFLLPVRRIQRKLCFYTKMYLDRNHYAKAKAPEFLPFCIYETKSKLLNENTGMDIKYQENKVFNLRLAAEPVNGLLIRPGETFSFWQRVRYAEKNERYKDGLCVVNDELVTVPGGGLCHLSNLLFWLFLHTPLTIVERHAHEIKDFPSPDEDEPDGVDATIHEGWLDLKVKNDTNLTFQIELSIDGPYIYGRIFMDQAKGYSYEVVNRDKRFLQKEGKIFERVSVCRQVIDNKSKQVISENMLYTDVFEIGYPLPEGTAIAEEGHHHHHH | soluble |
| MKKAGKKNSDAGKTFILISSSCSSCQKAIEFFDQNKISYVVENFYKKPISDKRFKDILSLSEDGTESLFSKRADQIKATNSVSVEELSISELIKLVRERPSLLRRPIIIQYNSSGIPKRMRIGYNSSEIKVFERKLIEPKPIIQQ | soluble |
| MGSDKIHHHHHHMYRTAIEELHRWKAKRNKKPLIIRGARQVGKTWLMKEFGRVAFAKTVYISLDNNRRMKELFSADLDVERIVTGLELYSGQKIDPANTLLIFDEVQEVPTALTSLKYFNENAPQYQIISAGSLLGVALHQGTSFPVGKVEFLDLYPLSFTEFLNAMDKGRYVELLQKGDFDMIATFKQTYVDMLKYYYYVGGMPEVVQSFSETKDFGEVREIQQRILDAYEQDFSKHAPHDVVPRIRMLWNSIPAQLTKENKKFIYGLIKEGARAKEYEQSMLWLTDCGLVHKVHRVNAPSLPLKAYEDLKAFKLFLVDIGLLSCMVRLNQGTLLDGNELFKEFKGALTEQYVLQQLRTLKELEAYYWTNDRGSAEIDFVVDDGHKVIPIEVKAETNLKAKSLKMYQEKFRPELSIRASMADYRRENRLLNLPLYMVEMMGLLLKEAE | not soluble |
| MGSDKIHHHHHHMTTIFIEKATILDAEKLTEIMTRTFDEEEKRWLCGQGDVIDYNIQPPGYSSVEMMRYSIEELDCYKVIMDGKIIGGIIVTISGKSYGRIDRIFVEPVYQGKGIGSYVIKLIEEEYPSIRIWDLETSSRQLNNHHFYKKMGYETIFKSEDEYCYVKRITVESAEENLIKNKDMKNSQYENCNLANTEYYQVNLKNSSFVGSNMMNMKMSNCNVRQSNFRNINFRNSSYADLNLSGSKFNFVTLGGVQFKDTSLGEDKDPISFNRCDLEGSTISNSNLKNMDIENCDITGMKINGIPIEKLLALYNKVKS | not soluble |
| MPILEEPHESRTITLPPRPARLGGRCDVLVVGGGPAGFAAAVGAADAGADTVLVERYGFLGGNATAALVMPLMSFHNEHKQAAFTEAGDTSRLLPTDHGEGEPVVAGVLWQLLDRLTGRGGCLPPSPKTGYTVPFDPELFKFCLLEMADESGVRMLFHSFASGALPLDDGPGWRVVFETKSGPVVIDAGVVVDGTGDGDVAAACGAPYEVGRPEDGLVQPMTLMFRVADFARPDFAAYVREHPDQWRGVHGLWDLIEEARKNGELRLPREDILFFATPHPHEVAVNSTRVNRVLGTSVWDLTRAEYTARHQLAEIDRFLRTRVPGFEESYVVQSGTHVGVRESRRVVGDHRLTGHDILAARTFPDVIAHGAYPVDIHNPRGSGTVLKRVPRGSFYDIPLRCLLPRDTDRLLVAGRCISGTHVAHSSYRVMPIAMATGHAAGVCAALTVRHGSGPRGLPYRLVQRELLRQGARLRTEPHLEHHHHHH | not soluble |
